According to the nanobody polyreactivity screen of Harvey et al. (2022):

Test: yeast display, Sf9 membrane polyspecificity reagent, FACS + sequencing; frameworks hold sequencing errors
Outline: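 A nanobody's polyreactivity label depends on the gate it was sorted from. Yeast display cells were stained with 10% biotinylated, detergent-solubilized Sf9 membrane reagent for 1 hour at 4 °C, enriched on streptavidin microbeads and sorted by FACS. The low and high (top ~1%) gates were set on anti-HA fluorescence for expression and streptavidin fluorescence for reagent binding.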

Q: Which “polyreactivity (PSR sort gate)” value does the source give for “QVQLVESGGGLVQAGGPLRLSCAASGIIFGFYAMGWYRQPPGKERELVADITSSGGSTYYADSVKGRFTISRDNAKNTVYLQINSLKPEDTAVYYCAADGVPGGPPVEGMDYWGQGTQVTVSS” here?
A: low polyreactivity

Q: With “QVQLVESGGGLVQAGGRHRLSCAASGRTFGVYAMGWYRQAPGKEREFVGVISWSDDSTYYADSVKGRFTISRDNAKNTVSLQMNSLKPEDTAVYYCNADDYLVYSGSHYGYWGQGTQVTVSS” as the sequence, how does the “polyreactivity (PSR sort gate)” value read?
A: low polyreactivity

Q: Which “polyreactivity (PSR sort gate)” value does the source give for “QVQLVESGGGLVQAGGRHRLSCAASGSIFTVYTIGWYRQAPGKEREFVAAINSRGGTTYYADSVKGRFTISRDNAKNTVYLQMNSLKPEDTAVYYCAAKQRPKSYGPGHYYWGQGTQVTVSS” here?
A: high polyreactivity

Q: Which “polyreactivity (PSR sort gate)” value does the source give for “QVQLVESGGGLVQAGGRHRLSCAPSASIFSVNAMGWYRQAPGKERELVAAISWRGASTYYADSVKGRFTISRDNPKNTVYLQMNSLKPEDTAVYYCAAKGTGGDQYYAFDYWGQGTQVTVSS” here?
A: low polyreactivity

Q: Which “polyreactivity (PSR sort gate)” value does the source give for “QVQLVESGGGLVQAGGRLLLSCAASGGTFRVYAMGWYIQAPGKERELVASISWSSGITYYADSVKGRFTISRDNAKNTVYLQMNSLKPEDTAFYYCAAEGHVTYGAPGRLYRMGYWGQGTQVTVSS” here?
A: low polyreactivity

Q: For “QVQLVESGGGLVQAGGRLRFSCAASGRIFYSYTMGWYRQAPGKERELVASISRSSGDTYYADSVKGRFTISRDNAKNPVYLQMNSLKPEDTAVYYWAARIKTYSKRYYWGQGTQVTVSS”, which “polyreactivity (PSR sort gate)” value is on record?
A: high polyreactivity

Q: Which “polyreactivity (PSR sort gate)” value does the source give for “QVQLVESGGGLVQAGGRLRISSAASGFIFYVNAKGWYRQAPGKERELVAAISWSGGSTYYADSVKGRFTISRDNAKNTVYLQMNSLKPEDPAFYYCAAGASPYEGYDNWGQGTQVTVSS” here?
A: low polyreactivity

Q: For “QVQLVESGGGLVQAGGRLRLICAASGFIFWKNAMGWYRQSPGKQRELVAAISTRGGSTYYADSVKGRFTISRDNAKNSVYLQMNSLKPEDTAVYYCNKEWYQYKHNYWGQGTQVSVSS”, which “polyreactivity (PSR sort gate)” value is on record?
A: low polyreactivity

Q: With “QVQLVESGGGLVQAGGRLRLICAASGRTSRIYAMGWYRQAPGKWELVAAISGSGSRTYYADSVKGRFTISRDNAKNTVYFQMNSLKPEDTAVSYCNARYWYRHHPPEFDYWGQGTQVTVSS” as the sequence, how does the “polyreactivity (PSR sort gate)” value read?
A: high polyreactivity

Q: With “QVQLVESGGGLVQAGGRLRLICAASGSILNNYAMGWYRQAPGKERELVAAISSSGGTNYADSVKGRFTISRDNAKNTVYLQMNSLKPEDTAVYYCNADVLDGGYDYWGQGTQVTVSS” as the sequence, how does the “polyreactivity (PSR sort gate)” value read?
A: low polyreactivity

Q: Which “polyreactivity (PSR sort gate)” value does the source give for “QVQLVESGGGLVQAGGRLRLRCAASGSTFGYYAMGWYRQAPGKERELVAAISRSGGITYYADSVKGRFTISRDNAKNTVYLQMNSLKPEDTAVYYCAADRNRYTGEDDSWGEGTQVTVSS” here?
A: low polyreactivity

Q: For “QVQLVESGGGLVQAGGRLRLSCAASGFIFRPYAMGWYRQAPGKERELVPTISYRGGSTDYADSVKGRFTISRDNAKNTVYLQMNSLKPEDTAVYYCNAGYNRGYYYPVFAFFPYEYWGQGTQVTVSS”, which “polyreactivity (PSR sort gate)” value is on record?
A: low polyreactivity

Q: For “QVQLVESGGGLVQAGGRLRLSCAASGFTFPRYAMGWYRQAPGKERELVAAISRGGSTNYADSVKGRFTISRDNAKNTVYLQMNSLKPEDTAVYDCAKVLRRWPDPAWGMDYWGQGTQVTVSS”, which “polyreactivity (PSR sort gate)” value is on record?
A: high polyreactivity

Q: Which “polyreactivity (PSR sort gate)” value does the source give for “QVQLVESGGGLVQAGGRLRLSCAASGFTFRGYAMGWYRQAPGKERELVAAITKRGGSTYYADSVKGRFTISRDNAKNTVYLQMNSLKPEDTAVYYCNKYAGQTTYDYWGQGTQVTVSS” here?
A: high polyreactivity

Q: With “QVQLVESGGGLVQAGGRLRLSCAASGFTFTRYTMGWYRQAPGKERELVARITRSGASTYYADSVKGRFTISRDNAKNTVYLQMNSLKPEDTAVYYCAADTWSYTTRYYYWGQGTQVTVSS” as the sequence, how does the “polyreactivity (PSR sort gate)” value read?
A: high polyreactivity

Q: For “QVQLVESGGGLVQAGGRLRLSCAASGFTFYNYAMGWYRQAPGKERELVAAISWSGGSTHYADSVKGRFTISRDNAKNTVFLQMNSLKPEDTAVYYCAKVGVLGYYTYYYWGQGTQVTVSS”, which “polyreactivity (PSR sort gate)” value is on record?
A: low polyreactivity

Q: Which “polyreactivity (PSR sort gate)” value does the source give for “QVQLVESGGGLVQAGGRLRLSCAASGFTFYWNAMGWYRQAPGKERELVAAINWRGTSTYYADSVKGRFTISRDNAKNTVYLQMNSLKPEDTAVDYCNTYVYVEYDWGQGTQVTVSS” here?
A: high polyreactivity

Q: Which “polyreactivity (PSR sort gate)” value does the source give for “QVQLVESGGGLVQAGGRLRLSCAASGFTFYYYTMGWYRQAPGKEREVVAAITWRGGSTNYADSVKGRFTISRDNAKNTVYLQMNSLKPEDTAVYYCAAVTYWFWPGMDYWGQGTQVTVSS” here?
A: low polyreactivity

Q: With “QVQLVESGGGLVQAGGRLRLSCAASGFTYRGNAMGWYRHAPGKERELVAAITSSDDSTYYADSVKGRFTISRDNAKITVYLQMNSLKPVDTAVYYCAAVANGYWTYEYWGQGTLVTVSS” as the sequence, how does the “polyreactivity (PSR sort gate)” value read?
A: low polyreactivity

Q: Which “polyreactivity (PSR sort gate)” value does the source give for “QVQLVESGGGLVQAGGRLRLSCAASGGTFHKYAMGWYRQAPGKERELVAGISRRTGTTYYADSVKGRFTISRDNAKNTVYLQMNSLKPEDTAVYYCATDWGRYSRLSKADPSDYWGQGTHVTVSS” here?
A: high polyreactivity

Q: For “QVQLVESGGGLVQAGGRLRLSCAASGGTFYYYAMGWYRQAPGKERELVAAIRRRGGGTYSADSVKGRFTISRDNAKNTVYLQMNSLKPEDTAVYYCARDKLRSWWGDYNTYYPDDSWGQGTQVTVSS”, which “polyreactivity (PSR sort gate)” value is on record?
A: high polyreactivity

Q: Which “polyreactivity (PSR sort gate)” value does the source give for “QVQLVESGGGLVQAGGRLRLSCAASGIIFDTYVMGWYRQAPGKERELVAAITRSGGRTRYADSVKGRFTISRDNAKNTVYLQMNSLKPEDTAVYYCAARIPDRQDGYGYWGQGTQVTVSS” here?
A: high polyreactivity

Q: Which “polyreactivity (PSR sort gate)” value does the source give for “QVQLVESGGGLVQAGGRLRLSCAASGITFRTYAMGWYREAPGKERELVDAITRRGGSTYYADSVKGRFTISRDNAKNTVYLQMNSLKPEDTAVYYCAVRHNGIQASVGYDYWGQGTQVTGSS” here?
A: high polyreactivity

Q: For “QVQLVESGGGLVQAGGRLRLSCAASGITFSGYVLGWDRPAPGKERELVAAISSSGGRTYYADSVKGRFTISRDNAKNTVYLQMNSLKPEDTAVYYCAARFLYANRYSVDYDYWGQGTQVTVSS”, which “polyreactivity (PSR sort gate)” value is on record?
A: high polyreactivity

Q: With “QVQLVESGGGLVQAGGRLRLSCAASGITFYENAMGWYRQAPGKERELVAAISYSGGNTYPDSVKGRFTISRDNEKNTVYLQMNSLKPEDTAVYYCNADYAGWGEYDYCGQGTQVTVSS” as the sequence, how does the “polyreactivity (PSR sort gate)” value read?
A: low polyreactivity

Q: With “QVQLVESGGGLVQAGGRLRLSCAASGLIFDDYAMGWYRQAPGKERALVAAIDWGGGSTYYADSVKGRFTISRDNAKNTVYLQMNSLTPEHTAVYYCAADSYFSYRYNYWGQGTQVTVSS” as the sequence, how does the “polyreactivity (PSR sort gate)” value read?
A: low polyreactivity

Q: For “QVQLVESGGGLVQAGGRLRLSCAASGLTFGRYAMGWYRQAPGKERELVAVINGSGGNTYYADSVKGRFTISRDNAKNTVYLQMNSLKPEDTAVYYCAARRTVQYTLYYYPDYNYWGQGTQVTVSS”, which “polyreactivity (PSR sort gate)” value is on record?
A: low polyreactivity

Q: For “QVQLVESGGGLVQAGGRLRLSCAASGLTYTRYTMGWYRPAPGKERELVAAITSSGGSTYYADSVKGRFTISRDNAKNTVFLQMNSLKPEDTAVYFCAARYPGTRGDGYWGQGTQVTVSS”, which “polyreactivity (PSR sort gate)” value is on record?
A: high polyreactivity

Q: Which “polyreactivity (PSR sort gate)” value does the source give for “QVQLVESGGGLVQAGGRLRLSCAASGNIFYPNAMGWYRQAPGKERELVAAISSSGGSTYYADSVKGRFTISRDNAKNTVYLQMNSLKPEDTAVYYCAKDRSYAYYWWPYPTGYDYWGQGTQVTVSS” here?
A: low polyreactivity

Q: Which “polyreactivity (PSR sort gate)” value does the source give for “QVQLVESGGGLVQAGGRLRLSCAASGRIFGWIAMGWSRQAPGKDRELVAAISADGNTYSADSVKGRFTISRDNAKNTVYVQKNSLKPEDTAVSYCAAESWSADFSWYDYWGQGTQVTVSS” here?
A: high polyreactivity

Q: With “QVQLVESGGGLVQAGGRLRLSCAASGRIFPYYAMGWYRQAPGKEREFVAAITSSGGSTYYADSVKGRFTISRDNAKYTVYLQMNSLIPEDSAVYYCFAVRHFGLYAGRPYDYWGQGTQVTVSS” as the sequence, how does the “polyreactivity (PSR sort gate)” value read?
A: low polyreactivity

Q: With “QVQLVESGGGLVQAGGRLRLSCAASGRIFSQYSMGWYRQAPGKERELVAAISSRGGRTYYADSVKGRFTFSRDNAKNTVYLQMNSLKPEDTAVYYCAAYVYPWGRDYWGQGTQVTVSS” as the sequence, how does the “polyreactivity (PSR sort gate)” value read?
A: high polyreactivity

Q: With “QVQLVESGGGLVQAGGRLRLSCAASGRIFSYNAMGWYRQAPGKERELVAGITSGGRTYYADSVKGRFTISRDNAKNTVYLQMNSLKPEDTAVYYCAARYVPARTRYYYWGQGTQVTVSS” as the sequence, how does the “polyreactivity (PSR sort gate)” value read?
A: high polyreactivity

Q: With “QVQLVESGGGLVQAGGRLRLSCAASGRIFVHNAMGWYRQAPGKERELVAAISQNGGRTYYADSVKGRFTISRDNAKNTVYLQLNSLKPEDTAVYYCAAGQARAGLIGGYWGQGTQVTVSS” as the sequence, how does the “polyreactivity (PSR sort gate)” value read?
A: high polyreactivity

Q: For “QVQLVESGGGLVQAGGRLRLSCAASGRIFVIKSMGWYRQAPAKERELVAAISKRGGSTYYADSVKGRFTISRDNAKNTVYLQMNSLKPEDTAVYYCAARFKTTGYDYWGQGTQVTVSS”, which “polyreactivity (PSR sort gate)” value is on record?
A: high polyreactivity

Q: For “QVQLVESGGGLVQAGGRLRLSCAASGRIFVYNAMGWYRQAPGKERELVAAINYRGTRTYYADSVKGRFTISRDNAKNTVYLQLNSLKPEDTAVYYCATYLVTGGGLNVRYDYWGQGTQVTVSS”, which “polyreactivity (PSR sort gate)” value is on record?
A: high polyreactivity

Q: With “QVQLVESGGGLVQAGGRLRLSCAASGRTFAFYTMGWYRQAPGKEREFVAAISWSGGSTHYADSVKGRFTISRDNAKNTVYLQMNSLKPEDTAVYYCDAGPFYRFTDGRYKTLDYWGQGTQVTVSS” as the sequence, how does the “polyreactivity (PSR sort gate)” value read?
A: high polyreactivity

Q: With “QVQLVESGGGLVQAGGRLRLSCAASGRTFDTNAMGWYRQAPGKQRELVAVITARGGNTSYADSVKGRFTISRDYAKNTVYLLMNRLKPEDTAVYLCAARVYRAPWTYVEGNYWGQGTQVTVSS” as the sequence, how does the “polyreactivity (PSR sort gate)” value read?
A: low polyreactivity

Q: For “QVQLVESGGGLVQAGGRLRLSCAASGRTFDVYAMVWYRQAPGKERELVAAISKRGGSTYYADSVKGRFTISRDNAKNTVYLQMNSLKPEDTAVYYCNAYQTGWKGYDYWGQGTQVTVSS”, which “polyreactivity (PSR sort gate)” value is on record?
A: high polyreactivity

Q: For “QVQLVESGGGLVQAGGRLRLSCAASGRTFGPNVMGWYRQAPGKERELVAAITSGGTTYYADSVKGRFTISRDNAKNTVYLQMTSLIPADTAVYYCAATFYPYQVHHYYYWGQGTQVTVSS”, which “polyreactivity (PSR sort gate)” value is on record?
A: low polyreactivity
